Reference: publication PMC4768215, “Targeting surface-layer proteins with single-domain antibodies: a potential therapeutic approach against Clostridium difficile-associated disease” (Applied Microbiology and Biotechnology, 2015)

B1: SLP_VHH26 (VHH)
VHH: QVKLEESGGGLVQAGGSLRLSCAASGRTFTNYAMAWFRQASGKEREFVAIISQSGGRTYYGDSVKGRFTISRDNAKNTVYLQLNSLQPEDTGVYYCAAGDSPYYYSRSRYDLWGPGTQVTVSS
notes: From an immune llama phage display library panned on QCD-32g58 SLP; source: monomeric SEC fractions for SPR; not shown: His6, C-terminal, kept
B2: SLP_VHH22 (VHH)
VHH: QVQLVESGGGLVQPGGSLRLSCAASGFTLDSYAIGWFRQAPGKEHEGISCISSNGGSTYYTDSVKGRFTISRDNAKNTVYLQMNSLESEDSAVYYCATVRRCSSLDMALGALATRTKGYDYWGQGTQVTVSS
notes: as for B1
B3: SLP_VHH50 (VHH)
VHH: QVKLEESGGGLVQPGGSLRLSCAASGFTLDYYTIGWFRQAPGKEREGVACISSDDRTYYVDSVKGRFAISRDNVKNTVYLQMNNLKPEDTAVYYCASKESVFLIATMKGCAPGHDDYWGQGTQVTVSS
notes: as for B1

Tests used:
[1] = molecular target: QCD-32g58 LMW SLP (low-molecular-weight subunit of the QCD-32g58 surface layer protein) (Clostridium difficile strain QCD-32g58); experiment: SPR; Biacore 3000; SEC-purified QCD-32g58 LMW SLP subunit amine-coupled to a CM5 chip; single-concentration screen, 200 nM VHH; 25 °C, 10 mM HEPES pH 7.4, 150 mM NaCl, 3 mM EDTA, 0.005 % P20
[2] = molecular target: 630 SLP (surface layer protein of C. difficile strain 630, HMW and LMW subunits) (Clostridium difficile strain 630); experiment: SPR; Biacore 3000; 630 SLP immobilised on a CM5 chip, VHHs injected at various concentrations; data not shown
[3] = molecular target: T1, SLP on cells of C. difficile strain 196 (ribotype 027) (Clostridioides difficile 196 (ribotype …, UniProt A0A9R0BMB3, strain)); experiment: ELISA; whole cell ELISA: formalin-fixed C. difficile cells coated on MaxiSorp plates, His6-tagged VHH at 10 μg/ml in PBS-T, 37 °C, 1 h, detected with anti-His6-HRP; details: one partner purified
T1 construct: LMW subunit of the surface layer protein (from the precursor SlpA), C. difficile strain 196, ribotype 027; HMW subunit of the surface layer protein (from the precursor SlpA), C. difficile strain 196, ribotype 027; Whole cells were the antigen; source: endogenous, on formalin-fixed C. difficile 196 cells

[4] = molecular target: T2, SLP on cells of C. difficile strain R20291 (ribotype 027) (Clostridioides difficile R20291 …, UniProt A0A9R0BMB3, strain); experiment: as above; details: one partner purified
T2 construct: LMW subunit of the surface layer protein (from the precursor SlpA), C. difficile strain R20291, ribotype 027; HMW subunit of the surface layer protein (from the precursor SlpA), C. difficile strain R20291, ribotype 027; Whole cells were the antigen; source: endogenous, on formalin-fixed C. difficile R20291 cells

[5] = molecular target: T3, SLP on cells of C. difficile strain BI-1 (ribotype 027) (Clostridioides difficile BI-1 (ribotype …, UniProt A0A9R0BMB3, strain)); experiment: as above; details: one partner purified
T3 construct: LMW subunit of the surface layer protein (from the precursor SlpA), C. difficile strain BI-1, ribotype 027; HMW subunit of the surface layer protein (from the precursor SlpA), C. difficile strain BI-1, ribotype 027; Whole cells were the antigen; source: endogenous, on formalin-fixed C. difficile BI-1 cells

[6] = molecular target: T4, SLP on cells of C. difficile strain BI-7 (ribotype 027) (Clostridioides difficile BI-7 (ribotype …, UniProt A0A9R0BMB3, strain)); experiment: as above; details: one partner purified
T4 construct: LMW subunit of the surface layer protein (from the precursor SlpA), C. difficile strain BI-7, ribotype 027; HMW subunit of the surface layer protein (from the precursor SlpA), C. difficile strain BI-7, ribotype 027; Whole cells were the antigen; source: endogenous, on formalin-fixed C. difficile BI-7 cells

[7] = molecular target: T5, QCD-32g58 SLP (surface layer protein of C. difficile strain QCD-32g58, HMW and LMW subunits) (Clostridioides difficile QCD-32g58 …, UniProt A0A9R0BMB3, strain); experiment: SPR; Biacore 3000; SEC-purified QCD-32g58 SLP amine-coupled to a CM5 chip, VHH monomer fractions injected at various concentrations; 25 °C, 10 mM HEPES pH 7.4, 150 mM NaCl, 3 mM EDTA, 0.005 % P20; KD by steady-state analysis; details: both partners purified
T5 construct: low-molecular-weight (LMW) subunit of the surface layer protein, cut from the precursor SlpA by Cwp84, C. difficile strain QCD-32g58 (ribotype 027); predicted mass 33.9 kDa; high-molecular-weight (HMW) subunit of the surface layer protein, cut from the precursor SlpA by Cwp84, C. difficile strain QCD-32g58 (ribotype 027); predicted mass 44.2 kDa; Both subunits come from one precursor, SlpA; also …

[8] = molecular target: T6, 630 SLP (surface layer protein of C. difficile strain 630, HMW and LMW subunits) (Clostridioides difficile 630 (ribotype …, UniProt Q183M8, strain)); experiment: SPR; Biacore 3000; 630 SLP immobilised on a CM5 chip, VHHs injected at various concentrations; data not shown; details: both partners purified
T6 construct: low-molecular-weight (LMW) subunit of the surface layer protein, cut from the precursor SlpA by Cwp84, C. difficile strain 630 (ribotype 012); predicted mass 34.2 kDa; high-molecular-weight (HMW) subunit of the surface layer protein, cut from the precursor SlpA by Cwp84, C. difficile strain 630 (ribotype 012); predicted mass 39.5 kDa; Both subunits come from one precursor, SlpA; source: purified …

[9] = molecular target: T7, QCD-32g58 LMW SLP (low-molecular-weight subunit of the QCD-32g58 surface layer protein) (Clostridioides difficile QCD-32g58 …, UniProt A0A9R0BMB3, strain); experiment: SPR; Biacore 3000; SEC-purified QCD-32g58 LMW SLP subunit amine-coupled to a CM5 chip; single-concentration screen, 200 nM VHH; 25 °C, 10 mM HEPES pH 7.4, 150 mM NaCl, 3 mM EDTA, 0.005 % P20; details: both partners purified
T7 construct: low-molecular-weight (LMW) subunit of the surface layer protein, cut from the precursor SlpA by Cwp84, C. difficile strain QCD-32g58 (ribotype 027); predicted mass 33.9 kDa; also called QCD-32g58 SLP LMW subunit; LMW subunit; source: purified from C. difficile QCD-32g58 (low-pH glycine extraction, minor SEC peak at about 15 ml); in the Western blot the LMW band of the extracted SLPs

Binder	Kd [1] [nM]	koff [1] [s⁻¹]	kon [1] [M⁻¹ s⁻¹]	Kd [2] [nM]	binding result [3]	binding result [4]	binding result [5]	binding result [6]	Kd [7] [nM]	binding result [8]	Kd [9] [nM]	koff [9] [s⁻¹]	kon [9] [M⁻¹ s⁻¹]
B1	460	0.097	210000	2000	binds	binds	binds	binds	580				
B2					binds	binds	binds	binds	180	no binding	8	0.0011	130000
B3					binds	binds	binds	binds	75	no binding	14	0.0027	190000
